{
  "source": "paper PMC5502268",
  "about": "“DNA Methylation Influences Chlorogenic Acid Biosynthesis in Lonicera japonica by Mediating LjbZIP8 to Regulate Phenylalanine Ammonia-Lyase 2 Expression”",
  "binders": {"B1": {"name": "LjPAL2 G-box probe (dsDNA)", "DNA 1": "CTCTCCTGTCCACGTGTCATCAAC", "DNA 2": "GTTGATGACACGTGGACAGGAGAG"}},
  "key": {"LjbZIP10": {"target": "T1, LjbZIP10 (Lonicera japonica, UniProt A0A4Y1JSG2 1-361)", "T1 sequence": "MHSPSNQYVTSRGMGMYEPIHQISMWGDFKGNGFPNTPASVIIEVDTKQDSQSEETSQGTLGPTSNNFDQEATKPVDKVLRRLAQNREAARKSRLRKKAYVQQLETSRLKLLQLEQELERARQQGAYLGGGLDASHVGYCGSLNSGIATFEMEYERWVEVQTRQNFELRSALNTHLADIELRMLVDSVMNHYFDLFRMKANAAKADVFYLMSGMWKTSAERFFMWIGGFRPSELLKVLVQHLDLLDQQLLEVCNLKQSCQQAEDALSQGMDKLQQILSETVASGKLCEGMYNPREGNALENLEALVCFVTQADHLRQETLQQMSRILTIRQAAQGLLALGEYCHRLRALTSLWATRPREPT", "test": "EMSA; 40 fmol biotin probe, 15 fmol protein, 0 or 4 pmol competitor, room temperature 20 min, Pierce LightShift kit 20148; binding buffer, salt and pH not stated", "details": "protein: recombinant; tags: GST (pGEX-4T-1); chain copies: 2; blunt"}, "LjbZIP8": {"target": "T2, LjbZIP8 (Lonicera japonica, UniProt A0A4Y1JSE6 1-144)", "T2 sequence": "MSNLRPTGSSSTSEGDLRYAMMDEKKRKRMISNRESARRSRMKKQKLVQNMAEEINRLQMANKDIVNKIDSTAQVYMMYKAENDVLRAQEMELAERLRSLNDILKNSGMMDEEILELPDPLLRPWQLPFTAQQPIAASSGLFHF", "test": "EMSA; inhibited by unlabelled probe (200x in legend; 4 pmol vs 40 fmol in Methods); 40 fmol biotin probe, 15 fmol protein, 0 or 4 pmol competitor, room temperature 20 min, Pierce LightShift kit 20148; binding buffer, salt and pH not stated", "details": "protein: recombinant; tags: GST (pGEX-4T-1); chain copies: 2; blunt"}},
  "data": [
    {"binder": "B1", "values": [
      {"measurement": "binding result", "setting": "LjbZIP10", "value": "no binding"},
      {"measurement": "binding result", "setting": "LjbZIP8", "value": "binds"}
    ]}
  ]
}
